Where two headings read alike, the source gives them in different places.
Tests used:
[1] = target: T1, panel of four distinct ZIKV strains (H/PF/2013; MR766, MRS-OPY and PV10552); assay: cell-based or functional assay
[2] = target: T1, panel of four distinct ZIKV strains …; assay: cell-based or functional assay; remark: listed apart in the source

B1: ZKA190 (antibody, V domains shown)
VH: QVQLVESGGGVVQPGRSLRLSCAASGFTFSKYGMHWVRQAPGKGLEWVAVISYEGSNKYYADSVKGRFTISRDNSKNTLYLQMNSLRAEDTAVYYCAKSGTQYYDTTGYEYRGLEYFGYWGQGTLVTVSS
VL: EIVLTQSPGTLSLSPGERATLSCRASQSVSSSYLAWYQQKRGQAPRLLIYDASSRATGIPDRFSGSGSGTDFTLTISRLEPEDFAVYYCQQYGRSRWTFGQGTKVEIK
- ZIKV neutralization IC50 (four strains, Vero cells, flow cytometry) [1]: 0.004 to 0.05 nM
- ZIKV neutralization IC50 (four strains, Vero cells, flow cytometry) [2]: 0.6 to 8 ng/mL
